Assay results from patent publication US20210221882A1 (Sanofi, published 2021).

Assays:
Assay in all cases: cell-based or functional assay
Recombinant human IL-4 [1] = molecular target: T1, Recombinant human IL-4 (human, UniProt P05112 25-153)
T1 sequence (looked up): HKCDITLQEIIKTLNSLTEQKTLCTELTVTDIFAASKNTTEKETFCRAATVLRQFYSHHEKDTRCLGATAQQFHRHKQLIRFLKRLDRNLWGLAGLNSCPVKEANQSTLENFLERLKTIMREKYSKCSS

cynomolgus monkey IL-4 = molecular target: T2, cynomolgus monkey IL-4 (cynomolgus monkey, UniProt P79339 25-153, limits assumed)
T2 sequence (looked up): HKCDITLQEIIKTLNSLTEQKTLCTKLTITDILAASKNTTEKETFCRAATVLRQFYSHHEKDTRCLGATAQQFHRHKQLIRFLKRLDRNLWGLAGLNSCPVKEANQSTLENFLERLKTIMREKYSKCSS

Recombinant human IL-4 [2] = molecular target: T1, Recombinant human IL-4; remark: listed apart in the source
Recombinant human IL-4 [3] = molecular target: T1, Recombinant human IL-4; remark: listed apart in the source

Mean IC50, inhibition of TF-1 cell proliferation induced by human IL-4 (Recombinant human IL-4 [1]): 2.03 nM
Mean IC50, inhibition of TF-1 cell proliferation induced by cynomolgus IL-4 (cynomolgus monkey IL-4): 0.53 nM
IC50, inhibition of IL-4-induced Stat6 phosphorylation in human blood monocytes, donor 217 (Recombinant human IL-4 [2]): 0.78 nM
IC50, inhibition of IL-4-induced Stat6 phosphorylation in human blood monocytes, donor 229 (Recombinant human IL-4 [2]): 0.73 nM
IC50, inhibition of IL-4-induced Stat6 phosphorylation in human blood monocytes, donor 245 (Recombinant human IL-4 [2]): 1.32 nM
IC50, IL-4/IL-13-stimulated IL-6 release from LL97A IPF lung fibroblasts (combination of 15 ng/ml rhIL-13 plus 5 ng/ml rhIL-4) (Recombinant human IL-4 [3]): 7.8 nM
IC50, IL-4/IL-13-stimulated eotaxin release from LL97A IPF lung fibroblasts (combination of 15 ng/ml rhIL-13 plus 5 ng/ml rhIL-4) (Recombinant human IL-4 [3]): 3.8 nM
IC50, IL-4 and IL-13 induced LOX gene expression in IPF pulmonary fibroblasts (Taqman) (Recombinant human IL-4 [3]): 3 to 6 nM
B1: huTBTI3_2_1 (bispecific antibody)
VH: EVQLKESGPGLVAPGGSLSITCTVSGFSLTDSSINWVRQPPGKGLEWLGMIWGDGRIDYADALKSRLSISKDSSKSQVFLEMTSLRTDDTATYYCARDGYFPYAMDFWGQGTSVTVSSGGGGSGGGGSQVQLQQSGPELVKPGASVKISCKASGYSFTSYWIHWIKQRPGQGLEWIGMIDPSDGETRLNQRFQGRATLTVDESTSTAYMQLRSPTSEDSAVYYCTRLKEYGNYDSFYFDVWGAGTLVTVSS
VL: DIVLTQSPASLAVSLGQRATISCRASESVDSYGQSYMHWYQQKAGQPPKLLIYLASNLESGVPARFSGSGSRTDFTLTIDPVQAEDAATYYCQQNAEDSRTFGGGTKLEIKGGGGSGGGGSDIQMTQSPASLSVSVGDTITLTCHASQNIDVWLSWFQQKPGNIPKLLIYKASNLHTGVPSRFSGSGSGTGFTLTISSLQPEDIATYYCQQAHSYPFTFGGGTKLEIK
